Results from US20030215852A1 (Pfizer, published 2003).

Biological target: T1, Pablo (pro-apoptotic Bcl-XL binding protein) (human, UniProt Q92558 1-559)
T1 sequence: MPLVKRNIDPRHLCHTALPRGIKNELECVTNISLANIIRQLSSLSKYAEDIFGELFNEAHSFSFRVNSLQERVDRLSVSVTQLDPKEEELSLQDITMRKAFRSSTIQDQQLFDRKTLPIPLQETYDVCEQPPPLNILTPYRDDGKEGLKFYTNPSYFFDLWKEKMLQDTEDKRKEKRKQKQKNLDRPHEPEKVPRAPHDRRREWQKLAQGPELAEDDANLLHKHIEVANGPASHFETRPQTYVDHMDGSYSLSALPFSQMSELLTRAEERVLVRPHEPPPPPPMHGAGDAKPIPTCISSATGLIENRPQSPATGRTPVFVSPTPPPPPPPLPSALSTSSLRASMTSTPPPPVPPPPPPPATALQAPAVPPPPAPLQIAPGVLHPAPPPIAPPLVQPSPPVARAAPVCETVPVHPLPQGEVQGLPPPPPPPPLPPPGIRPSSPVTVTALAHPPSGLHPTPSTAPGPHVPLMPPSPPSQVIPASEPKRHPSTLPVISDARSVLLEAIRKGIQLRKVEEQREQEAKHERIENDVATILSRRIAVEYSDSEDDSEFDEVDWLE
Experiment: yeast two-hybrid assay

binding result: no binding
B1: pancortin 1 (other)
chain: MITNWMSQTLPSLVGLNTTKLSAAGGGTLDRSTGVLPTNPEESWQVYSSAQDSEGRCICTVVAPQQTMCSRDARTKQLRQLLEKVQNMSQSIEVLDRRTQRDLQYVEKMENQMKGLESKFKQVEESHKQHLARQFKAIKAKMDELRPLIPVLEEYKADAKLVLQFKEEVQNLTSVLNELQEEIGAYDYDELQSRVSNLEERLRACMQKLACGKLTGISDPVTVKTSGSRFGSWMTDPLAPEGDNRVWYMDGYHNNRFVREYKSMVDFMNTDNFTSHRLPHPWSGTGQVVYNGSIYFNKFQSHIIIRFDLKTETILKTRSLDYAGYNNMYHYAWGGHSDIDLMVDESGLWAVYATNQNAGNIVVSRLDPVSLQTLQTWNTSYPKRSAGEAFIICGTLYVTNGYSGGTKVHYAYQTNASTYEYIDIPFQNKYSHISMLDYNPKDRALYAWNNGHQILYNVTLFHVIRSDEL
notes: Tested in a yeast two-hybrid assay; also called BMZ
